According to publication PMC10786891, “Massively parallel profiling of RNA-targeting CRISPR-Cas13d”:

T1: EsCas13d, nuclease-dead (Eubacterium siraeum, UniProt B0MS50, R295A;H300A;R849A;H854A)
T1 sequence: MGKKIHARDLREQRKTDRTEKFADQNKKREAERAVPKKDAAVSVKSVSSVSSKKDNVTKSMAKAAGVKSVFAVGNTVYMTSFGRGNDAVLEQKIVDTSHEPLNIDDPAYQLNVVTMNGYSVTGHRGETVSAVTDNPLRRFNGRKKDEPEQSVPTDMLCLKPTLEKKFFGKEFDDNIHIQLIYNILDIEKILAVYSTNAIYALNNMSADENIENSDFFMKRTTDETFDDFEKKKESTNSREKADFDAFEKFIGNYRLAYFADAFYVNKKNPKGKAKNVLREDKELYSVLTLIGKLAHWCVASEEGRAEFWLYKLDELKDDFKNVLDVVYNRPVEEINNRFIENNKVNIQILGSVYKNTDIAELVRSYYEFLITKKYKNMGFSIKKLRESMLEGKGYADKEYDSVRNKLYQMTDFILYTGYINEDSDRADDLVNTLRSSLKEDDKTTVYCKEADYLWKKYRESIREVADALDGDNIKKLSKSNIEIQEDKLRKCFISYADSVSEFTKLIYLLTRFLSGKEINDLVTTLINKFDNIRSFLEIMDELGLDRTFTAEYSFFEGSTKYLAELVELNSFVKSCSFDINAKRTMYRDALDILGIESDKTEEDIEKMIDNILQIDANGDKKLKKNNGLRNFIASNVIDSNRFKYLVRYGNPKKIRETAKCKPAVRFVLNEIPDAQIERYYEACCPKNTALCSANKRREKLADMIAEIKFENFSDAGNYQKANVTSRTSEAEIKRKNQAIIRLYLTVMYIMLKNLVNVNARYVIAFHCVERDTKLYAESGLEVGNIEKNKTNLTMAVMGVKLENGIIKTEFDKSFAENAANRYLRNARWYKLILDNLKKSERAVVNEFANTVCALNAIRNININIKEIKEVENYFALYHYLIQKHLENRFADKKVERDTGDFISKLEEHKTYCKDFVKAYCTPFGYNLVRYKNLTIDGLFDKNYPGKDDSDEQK


Molecular target: T1, EsCas13d, nuclease-dead
Test: crRNA (strand 1, pre-loaded); Mg2+; 40 mM Tris-HCl pH 7.5, 150 mM NaCl, 6 mM MgCl2, 1 mM DTT, 0.1% Tween-20, 0.2 mg/ml BSA; 25 C; 10 min per concentration, then washed
Details: tags: His6-TwinStrep-SUMO cleaved; N-terminal SNAP kept (SNAP-Surface 488); label: 3' end held by stalled T7 RNA polymerase

Binder | Kd
target 1 insA 3' of 21,insC 3' of 18 (mixed) RNA 1: CACCCGUGCAAAAAUGCAGGGGUCUAAAACUGAGCGGAUAACCUCUCUAUGG RNA 2: GGGAAUGGAUCCACAUCUACGAAUUCGUACCAAUACGAGAGGUUAUCCGCUCACCGAGAUCGGAAGAGCACACGU | 47 ± 7 nM
target 1 C7U,U19C (mixed) RNA 1: CACCCGUGCAAAAAUGCAGGGGUCUAAAACUGAGCGGAUAACCUCUCUAUGG RNA 2: GGGAAUGGAUCCACAUCUACGAAUUCGUACCACAGAGAGGUUAUUCGCUCACCGAGAUCGGAAGAGCACACGU | 23.5 ± 1.7 nM
target 1 insU 3' of 20,insA 3' of 2 (mixed) RNA 1: CACCCGUGCAAAAAUGCAGGGGUCUAAAACUGAGCGGAUAACCUCUCUAUGG RNA 2: GGGAAUGGAUCCACAUCUACGAAUUCGUACCAUUAGAGAGGUUAUCCGCUCAACCGAGAUCGGAAGAGCACACGU | 12 ± 0.7 nM
target 3 insC 3' of 12,insA 3' of 2 (mixed) RNA 1: CACCCGUGCAAAAUUGCAGGGGUCUAAAACGACCUGAAUAUUUCAGAUCAAA RNA 2: GGGAAUGGAUCCACAUCUACGAAUUCGUUUUUGAUCUGAACAUAUUCAGGUACUGCAGAUCGGAAGAGCACACGU | ~102 nM
target 3 insC 3' of 8,insC 3' of 3 (mixed) RNA 1: CACCCGUGCAAAAUUGCAGGGGUCUAAAACGACCUGAAUAUUUCAGAUCAAA RNA 2: GGGAAUGGAUCCACAUCUACGAAUUCGUUUUUGAUCUGAAAUAUCUCAGGCUCUGCAGAUCGGAAGAGCACACGU | 77 ± 23 nM
target 3 C1A,A9G (mixed) RNA 1: CACCCGUGCAAAAUUGCAGGGGUCUAAAACGACCUGAAUAUUUCAGAUCAAA RNA 2: GGGAAUGGAUCCACAUCUACGAAUUCGUUUUUGAUCUGAAAUGUUCAGGUAUGCAGAUCGGAAGAGCACACGU | 61 ± 16.5 nM
target 3 insG 3' of 7,insC 3' of 7 (mixed) RNA 1: CACCCGUGCAAAAUUGCAGGGGUCUAAAACGACCUGAAUAUUUCAGAUCAAA RNA 2: GGGAAUGGAUCCACAUCUACGAAUUCGUUUUUGAUCUGAAAUAUUGCCAGGUCUGCAGAUCGGAAGAGCACACGU | 44.5 ± 5 nM
target 3 U8G,U22A (mixed) RNA 1: CACCCGUGCAAAAUUGCAGGGGUCUAAAACGACCUGAAUAUUUCAGAUCAAA RNA 2: GGGAAUGGAUCCACAUCUACGAAUUCGUUAUUGAUCUGAAAUAGUCAGGUCUGCAGAUCGGAAGAGCACACGU | 72.5 ± 13.5 nM
target 3 insU 3' of 22,insA 3' of 2 (mixed) RNA 1: CACCCGUGCAAAAUUGCAGGGGUCUAAAACGACCUGAAUAUUUCAGAUCAAA RNA 2: GGGAAUGGAUCCACAUCUACGAAUUCGUUUUUUGAUCUGAAAUAUUCAGGUACUGCAGAUCGGAAGAGCACACGU | 26.2 ± 2.5 nM
target 3 insU 3' of 22,insU 3' of 4 (mixed) RNA 1: CACCCGUGCAAAAUUGCAGGGGUCUAAAACGACCUGAAUAUUUCAGAUCAAA RNA 2: GGGAAUGGAUCCACAUCUACGAAUUCGUUUUUUGAUCUGAAAUAUUCAGUGUCUGCAGAUCGGAAGAGCACACGU | 4.9 ± 0.95 nM
target 3 G4A,C6G (mixed) RNA 1: CACCCGUGCAAAAUUGCAGGGGUCUAAAACGACCUGAAUAUUUCAGAUCAAA RNA 2: GGGAAUGGAUCCACAUCUACGAAUUCGUUUUUGAUCUGAAAUAUUGAAGUCUGCAGAUCGGAAGAGCACACGU | 42 ± 4.5 nM
target 3 C16U,U22C (mixed) RNA 1: CACCCGUGCAAAAUUGCAGGGGUCUAAAACGACCUGAAUAUUUCAGAUCAAA RNA 2: GGGAAUGGAUCCACAUCUACGAAUUCGUUCUUGAUUUGAAAUAUUCAGGUCUGCAGAUCGGAAGAGCACACGU | 81.5 ± 30 nM
target 3 insG 3' of 6,insU 3' of 3 (mixed) RNA 1: CACCCGUGCAAAAUUGCAGGGGUCUAAAACGACCUGAAUAUUUCAGAUCAAA RNA 2: GGGAAUGGAUCCACAUCUACGAAUUCGUUUUUGAUCUGAAAUAUUCGAGGUUCUGCAGAUCGGAAGAGCACACGU | 6.95 ± 0.6 nM
target 3 G4A,U22C (mixed) RNA 1: CACCCGUGCAAAAUUGCAGGGGUCUAAAACGACCUGAAUAUUUCAGAUCAAA RNA 2: GGGAAUGGAUCCACAUCUACGAAUUCGUUCUUGAUCUGAAAUAUUCAAGUCUGCAGAUCGGAAGAGCACACGU | 7.05 ± 1 nM
target 3 G4A,A5C (mixed) RNA 1: CACCCGUGCAAAAUUGCAGGGGUCUAAAACGACCUGAAUAUUUCAGAUCAAA RNA 2: GGGAAUGGAUCCACAUCUACGAAUUCGUUUUUGAUCUGAAAUAUUCCAGUCUGCAGAUCGGAAGAGCACACGU | 99 ± 21 nM
target 3 insU 3' of 6,insG 3' of 5 (mixed) RNA 1: CACCCGUGCAAAAUUGCAGGGGUCUAAAACGACCUGAAUAUUUCAGAUCAAA RNA 2: GGGAAUGGAUCCACAUCUACGAAUUCGUUUUUGAUCUGAAAUAUUCUAGGGUCUGCAGAUCGGAAGAGCACACGU | 10.9 ± 0.9 nM
target 3 U2G,C6A (mixed) RNA 1: CACCCGUGCAAAAUUGCAGGGGUCUAAAACGACCUGAAUAUUUCAGAUCAAA RNA 2: GGGAAUGGAUCCACAUCUACGAAUUCGUUUUUGAUCUGAAAUAUUAAGGGCUGCAGAUCGGAAGAGCACACGU | 11.3 ± 1.4 nM
target 3 U7A,U22C (mixed) RNA 1: CACCCGUGCAAAAUUGCAGGGGUCUAAAACGACCUGAAUAUUUCAGAUCAAA RNA 2: GGGAAUGGAUCCACAUCUACGAAUUCGUUCUUGAUCUGAAAUAUACAGGUCUGCAGAUCGGAAGAGCACACGU | 41 ± 6.5 nM
target 3 insU 3' of 6,insU 3' of 4 (mixed) RNA 1: CACCCGUGCAAAAUUGCAGGGGUCUAAAACGACCUGAAUAUUUCAGAUCAAA RNA 2: GGGAAUGGAUCCACAUCUACGAAUUCGUUUUUGAUCUGAAAUAUUCUAGUGUCUGCAGAUCGGAAGAGCACACGU | 6.95 ± 0.7 nM
target 3 insG 3' of 9,insC 3' of 5 (mixed) RNA 1: CACCCGUGCAAAAUUGCAGGGGUCUAAAACGACCUGAAUAUUUCAGAUCAAA RNA 2: GGGAAUGGAUCCACAUCUACGAAUUCGUUUUUGAUCUGAAAUAGUUCACGGUCUGCAGAUCGGAAGAGCACACGU | 80.5 ± 12.5 nM
target 3 A12C,U22C (mixed) RNA 1: CACCCGUGCAAAAUUGCAGGGGUCUAAAACGACCUGAAUAUUUCAGAUCAAA RNA 2: GGGAAUGGAUCCACAUCUACGAAUUCGUUCUUGAUCUGACAUAUUCAGGUCUGCAGAUCGGAAGAGCACACGU | 53 ± 20 nM
target 3 del21,del22 (mixed) RNA 1: CACCCGUGCAAAAUUGCAGGGGUCUAAAACGACCUGAAUAUUUCAGAUCAAA RNA 2: GGGAAUGGAUCCACAUCUACGAAUUCGUUUGAUCUGAAAUAUUCAGGUCUGCAGAUCGGAAGAGCACACGU | 13.4 ± 1.7 nM
target 3 U2G,U7A (mixed) RNA 1: CACCCGUGCAAAAUUGCAGGGGUCUAAAACGACCUGAAUAUUUCAGAUCAAA RNA 2: GGGAAUGGAUCCACAUCUACGAAUUCGUUUUUGAUCUGAAAUAUACAGGGCUGCAGAUCGGAAGAGCACACGU | 6.55 ± 0.85 nM
target 3 U2A,G4C (mixed) RNA 1: CACCCGUGCAAAAUUGCAGGGGUCUAAAACGACCUGAAUAUUUCAGAUCAAA RNA 2: GGGAAUGGAUCCACAUCUACGAAUUCGUUUUUGAUCUGAAAUAUUCACGACUGCAGAUCGGAAGAGCACACGU | 5.05 ± 0.55 nM
target 3 G3A,U7A (mixed) RNA 1: CACCCGUGCAAAAUUGCAGGGGUCUAAAACGACCUGAAUAUUUCAGAUCAAA RNA 2: GGGAAUGGAUCCACAUCUACGAAUUCGUUUUUGAUCUGAAAUAUACAGAUCUGCAGAUCGGAAGAGCACACGU | 72.5 ± 14.5 nM
target 3 insC 3' of 5,insC 3' of 3 (mixed) RNA 1: CACCCGUGCAAAAUUGCAGGGGUCUAAAACGACCUGAAUAUUUCAGAUCAAA RNA 2: GGGAAUGGAUCCACAUCUACGAAUUCGUUUUUGAUCUGAAAUAUUCACGGCUCUGCAGAUCGGAAGAGCACACGU | 19.6 ± 1.9 nM
target 3 insG 3' of 6,insA 3' of 2 (mixed) RNA 1: CACCCGUGCAAAAUUGCAGGGGUCUAAAACGACCUGAAUAUUUCAGAUCAAA RNA 2: GGGAAUGGAUCCACAUCUACGAAUUCGUUUUUGAUCUGAAAUAUUCGAGGUACUGCAGAUCGGAAGAGCACACGU | 15.6 ± 1.85 nM
target 3 U2G,A9G (mixed) RNA 1: CACCCGUGCAAAAUUGCAGGGGUCUAAAACGACCUGAAUAUUUCAGAUCAAA RNA 2: GGGAAUGGAUCCACAUCUACGAAUUCGUUUUUGAUCUGAAAUGUUCAGGGCUGCAGAUCGGAAGAGCACACGU | 36 ± 5 nM
